Experimental data reported in the nanobody polyreactivity screen of Harvey et al. (2022).

Assay: yeast display, Sf9 membrane polyspecificity reagent, FACS + sequencing; frameworks hold sequencing errors
Summary of the method: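 Nanobodies came from a synthetic yeast display library in Saccharomyces cerevisiae BJ5465, induced with galactose for 36–48 hours and stained for 1 hour at 4 °C with 10% biotinylated, detergent-solubilized Sf9 membrane reagent. Cells were enriched on streptavidin microbeads and then FACS-sorted, with low and high (top ~1%) gates set on anti-HA fluorescence for expression and streptavidin fluorescence for reagent binding. Each polyreactivity label reflects the gate a clone came from. Genes were amplified by colony PCR, sequenced by MiSeq 2 × 250 and filtered by CDR length.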
In the case of “QVQLVESGGGLVQAGGSLSLICAASGSTITYNAMGWYRQAPGKETELVAAIDWDGDTTYYADSVKGRFTISRDNAKNTVYLQMNSLKPEDTAVYYCAAEFYSLGKAIYEYWGQGTQVTVSS”, the “polyreactivity (PSR sort gate)” value is reported as “high polyreactivity”.
For “QVQLVESGGGLVQAGGSLRLSCAASGFTFPSYAMGWYRQAPGKERELVAAISSRGGSTYYADSVKGRFTISRDNAKNTVYLQMNSLKPEDTAVYYCNRLQVYSYYPYYPWYNYWGQGTQVTVSS”, the “polyreactivity (PSR sort gate)” value was “high polyreactivity”.
In the case of “QVQLVESGGGLVQAGGSLRLSCAASGFTIVPYAMGWYRQAPGNERELVAAISRRGSRTYYADSVKGRFTISRDNAKNTVYLQMNSLKAEDTAVYYCAAKLSAVKAAYDYWGQGTQVTVSS”, the “polyreactivity (PSR sort gate)” value is reported as “high polyreactivity”.
For “QVQLVESGGGLVQAGGSLRLRCAASGRTFAVYAMGWYRQAPGKERELVAAITLGASRSYYADSVKGRFTISRDNAKNTVYLHMNSLKPEDTAVYYCNAVGRRNVVSSLNDYWGQGTQVTVSS”, the “polyreactivity (PSR sort gate)” value was “low polyreactivity”.
For “QVQLVESGGGLVQAGGSLRLSSAASGFTFWSKAMGWYRQAPGKERELVAAISRGGSTYYADSVKGRFTITRDNAKNTVYLQMNSLKPEDTAVYYCAAVRLSRVYYWGQGTQVTVSS”, the “polyreactivity (PSR sort gate)” value was “high polyreactivity”.
With “QVQLVESGGGLVQAGGSLRLSSAASGIIFRVYTMGWYLQAPGKERELVAKISLGGARTYYADSVKGRFTISRDNAKNTVYLQMNSLKPEDTAVYYCNARSRWTAKFDYWGQGTQVTVSS” the “polyreactivity (PSR sort gate)” value was “high polyreactivity”.
For “QVQLVESGGGLVQAGGSLRLSCAASGRISVYNMGWYRQAPGKERELVAAISNGGSTNYADSVKGRFTISRDNAKNTVYLQMNSLKPEDTAVYYCNRRVPYSFYSRGYYYWGQGTQVTVSS”, the “polyreactivity (PSR sort gate)” value was “high polyreactivity”.
With “QVQLVESGGGLVQAGGSLRLSCAASGRTLGHNAMGWYRQAPGKERELVAAITSRGGTTYADSVKGRFTISRDNAKNTVYLQMNSLKPEDTAVYYCAARGYAYSRYYYWGQGTQVTVSS” the “polyreactivity (PSR sort gate)” value was “high polyreactivity”.
With “QVQLVESGGGLVQAGGSLRLSCAASGIIFAYYAMGWYRQAPGKERELVAAISWRGGSTYYADSVKGRFTISRDYAKNTVYLQMNSLKPEDTAVYYCAAAYLKKPYDYWGQGTQVTVSS” the “polyreactivity (PSR sort gate)” value was “high polyreactivity”.
In the case of “QVQLVESGGGLVQAGGSLRLSCAASGFTFYRNAMGWYRQAPGKERELVAAITRRGGSTYYADSVKGRFTISRDNAKNTVYLQMISLKPEDTAVYYCSKSYRFPSVGPPGELDYWGQGTQVTVSS”, the “polyreactivity (PSR sort gate)” value is reported as “high polyreactivity”.
With “QVQLVESGGGLVQAGGSLRLSCAASGSIFAYYAMGGYRQAPGKERELVAAITSGDSTYYADSVKGRFTISRDNAKNTVYLQMNSLKPEDTAVYYCAADHIWFYFYLYDYWGQGTQVTVSS” the “polyreactivity (PSR sort gate)” value was “low polyreactivity”.
For “QGQLVESGGGLVQAGGSLRLSCAASGRIFYTNAMGGYRQARGKERELVAGINYSGGNTYADSVKGRFTISRDNAKNTVYLQMNSLKPEDTAVYYCAARGWSHYGYGDNYRHGYWGQGTQVTVSS”, the “polyreactivity (PSR sort gate)” value was “high polyreactivity”.
With “QVQLVESGGGLVQAGGSLRLSCAASGRIFVTYAMGWYRQEPGKERELVAAISASGGSTYSADSVKGRFTISRDNAKNTVYLQMNSLKPEDTAVYYCAASYRSSLRPWAEDGFWGQGTQVTVSS” the “polyreactivity (PSR sort gate)” value was “high polyreactivity”.
For “QVQLVESGAGLVMAGGSLRLSCAASGRTISIYAMGWYRQAPGKERQLVAAISQSSSITYYADSVKGRFTLSRDNANNTVYLQMISLKPEDTACYYCNAVVLRYQGSWLEYWGQGTQVTVSS”, the “polyreactivity (PSR sort gate)” value was “low polyreactivity”.
For “QVQLVESGGGLVQAGGSLRLSCAASGRIFFVNAMGWYRQAPGKERELVAAISRGGSTNYADSVKGRFTISRDNAKNTVYLQMNSLKPEDTAVFYCNADGSSYWYPVPLDGGDYWGQGTQVTVSS”, the “polyreactivity (PSR sort gate)” value was “low polyreactivity”.
In the case of “QVQLVESGGGLVQAGGSLRLSCAASGRTYGWYAMGWYRQAPGKERELVAAIRSSGGRTHYADSVKGRFTISRDNAKNTVYLQMNSLKPEDTAVYYCAARYSAAYYWGQGTQVTVSS”, the “polyreactivity (PSR sort gate)” value is reported as “high polyreactivity”.
With “QVQLVESGGGLVQAGGSLRLSCAASGSIFPFYAMGWYRQAPGKERELVATISWSGGRTYYADSVKGRFTISRDNAKYTVDLQMNTLKPEDTAVYYCAAGSYHYPNAYYYWGQGTQVTVSS” the “polyreactivity (PSR sort gate)” value was “high polyreactivity”.
With “QVQLVESGGGLVQAGCSLRLSWAASGNIFKGYAMGWSRQAPGKERELVAAISKSGGSTYYADSVKGRFTISRDNAKNTVYLQMNSLKPEDTAVYYCNTYTYAGYNFWGQGTQVTVSS” the “polyreactivity (PSR sort gate)” value was “high polyreactivity”.
With “QVQLQESGGGLVQAGGSLRLSCAASGSIFVSVTMGWYRQAPGKERELVASIGRGSTTNHADSVKGRFTISRDNAKNIVYLLMNSLKPEDTAVYSCAALESYGKYHGYWGQGTQVTVSS” the “polyreactivity (PSR sort gate)” value was “low polyreactivity”.
For “QVQLVESGGGLVQAGGSLRLSCAASGSIFWNNAMGWYRQAPGKERELVAGISSAGSTNYADSVKGRFTISRDNAKNTVYLQMNILKPEDTAVYYCAAVYYGGFSDYDYWGQGTQVTVSS”, the “polyreactivity (PSR sort gate)” value was “low polyreactivity”.
In the case of “QVQLVESGGGLVQEGGSLRLSCAASGFTFPDYAMGWNRQAPGKERDLVAAITSSGGSTYYADSVKGRFTISRDNAKNTVYLQMNSLKPEDTAVYYCNGYISDDRYWSPAIEEDYWGQGTQVTVSS”, the “polyreactivity (PSR sort gate)” value is reported as “high polyreactivity”.
For “QVQRVESGGGLVQAGGSLRLSCAASGRTLARNAMGWYRQAPGKERELVASINGRTTRTYYADSVKGRFTISRDNAKNTVYLQMNSLKPEDTAVYYCAVKDRYSFRYDYWGQGTQVTVSS”, the “polyreactivity (PSR sort gate)” value was “high polyreactivity”.
In the case of “QVQLVESGGGLVQAGGSLRLSCAASGRTIQYNAMGWYRQAPGKERQLVAAISSSGGSTYYADSVKGRFTISRDNAKNTVYLQMNSLKPEDTAVYYCNAYSQSWNFYGDGDYWGQGTQVTVSS”, the “polyreactivity (PSR sort gate)” value is reported as “low polyreactivity”.
With “QVQLVESGGGLVQAGGSLRLSCAASGMTFFTYSMGWYRQAPGKERELVAAISGSGGSTYYADSVKGRFTISRDNAKNTVYLQMNSLKPEDTAVYYCAKRSWIVYDYWGQGTQVTVSS” the “polyreactivity (PSR sort gate)” value was “low polyreactivity”.
For “QVQLVESGGGLVQAGGSLRLSCAASGFIFGPYTMGWYRQAPGKERELVAAINNSGSTYYADSVKGRFTISRDNAKNTVYLQMNSLKPEDTAVYYCAAEPIIFVRYDYWGQGTQVTVSS”, the “polyreactivity (PSR sort gate)” value was “low polyreactivity”.
With “QVQLVESGGGLVQAGGSLRLSCAASGGTFSAYAMGWYRQAPGKERELVAAISYRGGRTYYADSVKGRFTISRDNAKNTVYLQMNSLKPEDTAVYYCNARRGSATHSVTARRGYWGQGTQVTVSS” the “polyreactivity (PSR sort gate)” value was “high polyreactivity”.
With “QVQLVESGGGLVQAGGSLRLSCAASGFTFDPYAMGWYRQAPGKERELVAAISISGGRTYYADSVKGRFTISRDNAKNTVYLQMNSLKPEDTAVYYCAVAQSHYFGGYGYWGQGTQVTVSS” the “polyreactivity (PSR sort gate)” value was “low polyreactivity”.
In the case of “QVQLVESGGGLVQAGGSLRLSCAASGIIFSTNAMGWYRQAPGKERELVAAISWDGSSTYYADSVKGRFTISRDNAKNTVYLQMNSLKPEDTAVYYCAADQSTVLDVGSWGQGTQVTVSS”, the “polyreactivity (PSR sort gate)” value is reported as “low polyreactivity”.
In the case of “QVQLVESGGGLVQAGGSLRLSCAASGITFPLYAMGWYRQAPGKERELVAAISRRGGRTYADSVKGRFTISRDNAKNTVYLQMNSLKPEDTAVYYCAAKGYSYSRDFYSWGQGTQVTVSS”, the “polyreactivity (PSR sort gate)” value is reported as “high polyreactivity”.
For “QVQLVESGGGLVQAGGSLRLSCAASGRIFDSNAMGWYRQAPGKERELVAAITYSGGGTFYADSVKGRITISRDNEKNTDYLQMNSLKPEDTAVYYCAARTSGKYRYYYWGQGTQVTVSS”, the “polyreactivity (PSR sort gate)” value was “high polyreactivity”.
In the case of “QVQLVESGGGLVHAGGSLRLSCAASGRTFWAYAMGWYRQAPGKERELVAAISASRGSTYYADSVKGRFTISRDTAKNTVYLEMNSLTAEDTAVYYCRLVSNGRLYDYWGQGTQATVSS”, the “polyreactivity (PSR sort gate)” value is reported as “low polyreactivity”.
In the case of “QVQLVESGGGLVQAGGSRRLSCAASGRTFEGNAMGWYRPAPGKERELVAAISTSGGRTYYADSVKGRFTISRDNAKNTVYLQLNSLIPEDTAVYDCNTDQYSPYEYSSFDSWGQCTQVTVSS”, the “polyreactivity (PSR sort gate)” value is reported as “low polyreactivity”.
For “QVQLVESGGGLVQAGGSLRLSCAASGRTFLWNAMGWYRQAPGKERELVAAITSGGRTTYADSVKGRFTISRDNAKNTVYLQMNSLKPEDTAVYYCAAVSANQDFDYWGQGTQVTVSS”, the “polyreactivity (PSR sort gate)” value was “high polyreactivity”.
For “QVQLVESGGGLVQAGGSLRLSCAASGSTFGDNTMGWYRQAPGKERELVASISKSGGSTYYADSVKGRFTISRDNAKNTVYLQMNSLKPEDTAVYYCNRVTHYIRFDYWGQGTQVTVSS”, the “polyreactivity (PSR sort gate)” value was “low polyreactivity”.
In the case of “QVQLVESGGGLDQAGGSLRLSCAASGLIFVRYAMGWYRQAPGKERELVATISARGASTYYADSVKGRFTISRDNAKNTVYLQMNSLIPEDTAVYYCANRGYYSRFYSYGYWGQGTEVTVSS”, the “polyreactivity (PSR sort gate)” value is reported as “high polyreactivity”.
For “QVQLVESGGGLVQAGGSLRLSCAASGSTFDDNAMGWYRQAPGKERELVASINYSTGSTYYADSVKGRFTISRDNAKNTVYLQMNSLKPEDTAVYYCAKDLRRYLSWWYRYPYDYWGQGTQVTVSS”, the “polyreactivity (PSR sort gate)” value was “low polyreactivity”.
In the case of “QVQLVESGGGLVQAGGSLRLSCDASGRPFRRNAMGWYRQAPGKERELVAAITLSGGRTYADSLKGRFTISRDNAKNTVYLQMNSLKPEDTAVYYCAASSPGFSYWYNGYEYWGEGTQVTVSS”, the “polyreactivity (PSR sort gate)” value is reported as “high polyreactivity”.
For “QVQLVESGGGLVQAGGSLRLSCAASGRTFSRYAMGWYRQAPGKERELVAAITSGGGSTYYADSVKGRFTISRDNAKNTVYLQMNSLKPEDTAVYYCAARTSGDGWIYYYWGQGTQVTVSS”, the “polyreactivity (PSR sort gate)” value was “high polyreactivity”.
With “QVQLVESGGGLVQAGRSLRLSCAASGSTFPVNTMGWYRQAPGKERELVAAITKNGANTYYADSVKGRFTISRDNAKNTVYLQMNSLKPEYTAVYYCAALYVYGKSYSRWLVELDYWGQGTQVTVSS” the “polyreactivity (PSR sort gate)” value was “low polyreactivity”.
With “QVHLVESGGGLVQAGGSLRLSCAASGLIFLWNAMGWYRQAPGKERELVAAISWSGGSTYYADSVKGRFTISRDNAKNTVYLQMNSLKPEDTAVYYCIRLLSLEFGFWGQGTQVTVSS” the “polyreactivity (PSR sort gate)” value was “high polyreactivity”.
For “QVQLVESGGGLVQAGGSLRLSCAASGFIIGSYTMGWNRQAPRKERELVASITKRGGSTYYADSVKGRFTISRDNAKNTVYLQMNSLKPEDTEVYYCAATYLFSHRSRYDYWGQGTQVTVSS”, the “polyreactivity (PSR sort gate)” value was “high polyreactivity”.
In the case of “QVQLVESGGGLVQAGGSLRLSCAASVRTFRIYAMGWYRQAPGKERELVAAISWDDGSTYYADSVKGRFTISRDNAKNTVYLQMNSLKPEDTAVYYCAAEYYFVNRGAWYDYWGQGTQVTVSS”, the “polyreactivity (PSR sort gate)” value is reported as “high polyreactivity”.
With “QVQLVESGGGLVQAGGSLRLSCAASGSTFYYNAMGWYRQAPGKERELVADISWRGGITYYADSVKGRFTISRDNAKNTVYLQMNSLKPEDTAVYYCAADIYPDWIYLLYGYWGQGTQVTVSS” the “polyreactivity (PSR sort gate)” value was “low polyreactivity”.
